Measurements: US20180296691A1 (Pfizer, published 2018)

Legend:
Test in all cases: SPR (BIAcore 2000), Eph receptor captured via anti-human antibody capture kit, monomeric human Ephrin-A4 12-400 nM as analyte, steady state affinity fit
[1] = target: recombinant EphA2 receptor (commercially available) (UniProt P29317 25-534, limits assumed)
Procedure: (§1) An anti-human antibody capture kit was used to immobilize recombinant Eph receptors on a CM5 biosensor chip. Prior to each antigen injection cycle, Eph receptors at the concentration of 2 μg/mL were captured on the surface with a contact time of 2 minutes and a flow rate of 5 μL/min. The captured antibody loading from baseline was constant at 150-260 response units. […] Following each cycle, the anti-human capture surface was regenerated with 30 seconds contact time of 3M MgCl₂ at 10 μL/min.
(§2) Biacore data was processed by initially calculating an average of the response at equilibrium (Req). The Req was then plotted versus concentration (M) and the steady state affinity fit was used to calculate the affinity and theoretical Rmax. In all cases, at least 5 different analyte concentrations were used to make this calculation. All data analysis steps were completed in BiaEvaluation Software 3.1 (GE Healthcare).

[2] = target: T1, recombinant EphA7 receptor (commercially available) (UniProt Q15375 28-555, limits assumed)
T1 sequence (looked up): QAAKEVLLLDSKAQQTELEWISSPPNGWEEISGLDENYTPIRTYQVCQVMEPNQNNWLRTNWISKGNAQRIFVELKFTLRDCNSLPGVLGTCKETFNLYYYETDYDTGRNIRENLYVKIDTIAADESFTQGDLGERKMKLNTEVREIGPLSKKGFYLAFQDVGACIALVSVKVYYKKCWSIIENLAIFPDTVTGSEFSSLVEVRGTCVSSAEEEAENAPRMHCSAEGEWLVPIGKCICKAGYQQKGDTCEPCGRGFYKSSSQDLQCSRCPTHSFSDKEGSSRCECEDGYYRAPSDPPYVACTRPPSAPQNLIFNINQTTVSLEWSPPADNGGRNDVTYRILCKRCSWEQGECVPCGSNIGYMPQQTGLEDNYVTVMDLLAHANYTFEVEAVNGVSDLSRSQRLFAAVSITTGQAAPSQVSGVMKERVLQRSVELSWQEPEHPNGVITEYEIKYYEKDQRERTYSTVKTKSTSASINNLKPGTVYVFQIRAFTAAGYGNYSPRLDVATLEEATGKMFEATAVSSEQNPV
Procedure: as §1, §2

[3] = target: recombinant EphA4 receptor (commercially available) (UniProt P54764 20-547, limits assumed)
Procedure: as §1, §2

[4] = target: T2, recombinant EphA10 receptor (commercially available) (UniProt Q5JZY3 34-565, limits assumed)
T2 sequence (looked up): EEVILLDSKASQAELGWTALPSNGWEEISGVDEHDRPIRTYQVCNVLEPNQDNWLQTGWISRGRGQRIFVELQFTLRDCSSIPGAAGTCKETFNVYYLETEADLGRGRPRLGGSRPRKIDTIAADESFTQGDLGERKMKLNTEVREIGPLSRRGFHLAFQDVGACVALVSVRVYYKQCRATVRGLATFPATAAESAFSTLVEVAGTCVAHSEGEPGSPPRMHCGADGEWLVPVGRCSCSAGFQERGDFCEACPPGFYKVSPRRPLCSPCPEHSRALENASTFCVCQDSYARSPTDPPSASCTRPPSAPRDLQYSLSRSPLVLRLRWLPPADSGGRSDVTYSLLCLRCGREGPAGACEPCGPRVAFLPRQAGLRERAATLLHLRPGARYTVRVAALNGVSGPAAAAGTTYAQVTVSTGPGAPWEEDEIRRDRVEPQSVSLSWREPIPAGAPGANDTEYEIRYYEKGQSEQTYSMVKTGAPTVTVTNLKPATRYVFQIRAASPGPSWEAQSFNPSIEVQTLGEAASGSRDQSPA
Procedure: as §1, §2

[5] = target: T3, recombinant EphA3 receptor (commercially available) (UniProt P29320 21-541, limits assumed)
T3 sequence (looked up): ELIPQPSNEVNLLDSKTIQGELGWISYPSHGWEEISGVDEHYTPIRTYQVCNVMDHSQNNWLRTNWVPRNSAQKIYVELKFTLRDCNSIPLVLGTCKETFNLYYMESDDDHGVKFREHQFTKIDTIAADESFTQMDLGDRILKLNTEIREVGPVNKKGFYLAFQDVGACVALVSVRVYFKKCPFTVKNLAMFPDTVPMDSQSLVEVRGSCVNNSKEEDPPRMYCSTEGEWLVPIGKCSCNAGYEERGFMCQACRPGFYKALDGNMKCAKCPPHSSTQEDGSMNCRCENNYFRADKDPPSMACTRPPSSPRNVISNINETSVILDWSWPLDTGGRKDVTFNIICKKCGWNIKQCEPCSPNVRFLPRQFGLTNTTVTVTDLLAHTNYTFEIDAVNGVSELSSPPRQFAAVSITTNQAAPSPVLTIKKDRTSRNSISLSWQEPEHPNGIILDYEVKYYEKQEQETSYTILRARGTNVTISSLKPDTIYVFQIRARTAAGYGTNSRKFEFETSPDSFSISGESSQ
Procedure: as §1, §2

[6] = target: T4, recombinant EphA6 receptor (commercially available) (UniProt Q9UF33 23-550, limits assumed)
T4 sequence (looked up): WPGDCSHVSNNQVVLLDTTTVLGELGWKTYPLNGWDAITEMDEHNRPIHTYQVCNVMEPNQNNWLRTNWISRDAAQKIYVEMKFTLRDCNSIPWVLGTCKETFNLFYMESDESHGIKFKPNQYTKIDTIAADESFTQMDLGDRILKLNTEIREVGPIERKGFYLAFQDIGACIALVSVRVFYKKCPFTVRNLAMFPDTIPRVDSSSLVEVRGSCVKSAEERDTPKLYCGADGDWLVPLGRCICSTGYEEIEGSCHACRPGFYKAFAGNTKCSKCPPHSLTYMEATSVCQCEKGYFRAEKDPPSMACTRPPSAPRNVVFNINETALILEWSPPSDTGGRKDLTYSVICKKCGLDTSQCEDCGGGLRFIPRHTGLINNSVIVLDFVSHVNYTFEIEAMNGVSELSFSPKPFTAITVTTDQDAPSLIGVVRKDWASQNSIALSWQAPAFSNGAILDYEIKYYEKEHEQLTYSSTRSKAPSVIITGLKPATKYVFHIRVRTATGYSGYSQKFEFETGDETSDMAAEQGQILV
Procedure: as §1, §2

[7] = target: T5, recombinant EphB2 receptor (commercially available) (UniProt P29323 19-543, limits assumed)
T5 sequence (looked up): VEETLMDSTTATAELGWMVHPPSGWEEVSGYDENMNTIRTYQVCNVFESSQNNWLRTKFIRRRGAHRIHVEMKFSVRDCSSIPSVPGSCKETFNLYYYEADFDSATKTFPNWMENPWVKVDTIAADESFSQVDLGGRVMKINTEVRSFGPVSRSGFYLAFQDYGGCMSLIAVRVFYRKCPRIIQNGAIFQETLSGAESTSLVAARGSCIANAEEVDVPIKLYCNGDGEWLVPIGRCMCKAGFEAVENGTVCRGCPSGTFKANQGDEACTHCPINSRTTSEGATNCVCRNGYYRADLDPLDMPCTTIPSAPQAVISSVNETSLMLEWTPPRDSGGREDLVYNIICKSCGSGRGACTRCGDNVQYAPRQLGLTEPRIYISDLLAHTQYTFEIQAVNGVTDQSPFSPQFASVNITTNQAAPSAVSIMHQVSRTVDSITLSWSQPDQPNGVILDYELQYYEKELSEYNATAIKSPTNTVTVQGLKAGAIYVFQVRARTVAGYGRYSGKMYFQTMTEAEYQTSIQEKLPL
Procedure: as §1, §2

Chain of recombinant EphA2 receptor (commercially available) (P29317 25-534 limits assumed): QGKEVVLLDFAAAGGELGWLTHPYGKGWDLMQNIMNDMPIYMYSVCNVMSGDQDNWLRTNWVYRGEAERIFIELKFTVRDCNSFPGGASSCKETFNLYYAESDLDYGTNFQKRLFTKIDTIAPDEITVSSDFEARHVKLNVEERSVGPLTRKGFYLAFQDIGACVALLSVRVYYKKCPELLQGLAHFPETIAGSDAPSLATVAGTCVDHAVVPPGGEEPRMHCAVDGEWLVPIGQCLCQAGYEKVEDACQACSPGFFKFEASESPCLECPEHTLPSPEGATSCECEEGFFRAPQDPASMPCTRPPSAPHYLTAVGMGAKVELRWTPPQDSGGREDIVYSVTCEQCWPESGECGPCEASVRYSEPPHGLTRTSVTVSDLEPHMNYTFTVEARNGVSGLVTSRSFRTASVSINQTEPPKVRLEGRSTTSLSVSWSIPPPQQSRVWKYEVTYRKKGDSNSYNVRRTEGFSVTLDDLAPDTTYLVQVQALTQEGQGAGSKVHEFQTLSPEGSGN
Chain of recombinant EphA4 receptor (commercially available) (P54764 20-547 limits assumed): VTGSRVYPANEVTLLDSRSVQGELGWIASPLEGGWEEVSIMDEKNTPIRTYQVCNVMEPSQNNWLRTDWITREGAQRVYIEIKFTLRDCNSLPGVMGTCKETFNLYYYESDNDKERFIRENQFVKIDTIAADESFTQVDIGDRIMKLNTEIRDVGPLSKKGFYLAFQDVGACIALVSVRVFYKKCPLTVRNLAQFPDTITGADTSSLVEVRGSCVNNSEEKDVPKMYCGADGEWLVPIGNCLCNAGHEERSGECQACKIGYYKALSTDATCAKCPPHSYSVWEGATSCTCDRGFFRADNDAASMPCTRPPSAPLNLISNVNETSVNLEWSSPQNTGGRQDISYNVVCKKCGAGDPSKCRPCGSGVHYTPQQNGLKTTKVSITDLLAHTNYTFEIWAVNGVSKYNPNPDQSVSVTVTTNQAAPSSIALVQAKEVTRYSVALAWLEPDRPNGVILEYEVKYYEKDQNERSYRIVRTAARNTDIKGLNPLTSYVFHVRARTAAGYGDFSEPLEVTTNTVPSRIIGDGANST

B1: monomeric human Ephrin-A4 (ligand)
chain: LRHVVYWNSSNPRLLRGDAVVELGLNDYLDIVCPHYEGPGPPEGPETFALYMVDWPGYESCQAEGPRAYKRWVCSLPFGHVQFSEKIQRFTPFSLGFEFLPGETYYYISVPTPESSGQCLRLQVSVCCKERKSESAHPVGSPGES
Binder B1 has a Kd [1] of 0.031 µM, a Kd [2] of 0.086 µM and a Kd [3] of 0.122 µM. It also gave a Kd [4] of 0.431 µM, a Kd [5] of 0.077 µM and a Kd [6] of 0.082 µM. It also gave a Kd [7] of 0.135 µM.
